ChEMBL document CHEMBL2074573, “Is the monkey an appropriate animal model to examine drug-drug interactions involving renal clearance? Effect of probenecid on the renal elimination of H2 receptor antagonists” (J Pharmacol Exp Ther, 2005)

Tests used:
[1] = substrate: CN/C(=N/CCSCc1nc[nH]c1C)NC#N; test: not read
[2] = substrate: NC(N)=Nc1nc(CSCCC(N)=NS(N)(=O)=O)cs1; test: not read
[3] = substrate: CNC(=C[N+](=O)[O-])NCCSCc1ccc(CN(C)C)o1; test: TP_TRANSPORTER: cell accumulation in hOAT3 expressing HEK cells; format: functional, cell-based, HEK293

B1: Organic anion transporter 3 (Homo sapiens) (protein)
chain: MTFSEILDRVGSMGHFQFLHVAILGLPILNMANHNLLQIFTAATPVHHCRPPHNASTGPWVLPMGPNGKPERCLRFVHPPNASLPNDTQRAMEPCLDGWVYNSTKDSIVTEWDLVCNSNKLKEMAQSIFMAGILIGGLVLGDLSDRFGRRPILTCSYLLLAASGSGAAFSPTFPIYMVFRFLCGFGISGITLSTVILNVEWVPTRMRAIMSTALGYCYTFGQFILPGLAYAIPQWRWLQLTVSIPFFVFFLSSWWTPESIRWLVLSGKSSKALKILRRVAVFNGKKEEGERLSLEELKLNLQKEISLAKAKYTASDLFRIPMLRRMTFCLSLAWFATGFAYYSLAMGVEEFGVNLYILQIIFGGVDVPAKFITILSLSYLGRHTTQAAALLLAGGAILALTFVPLDLQTVRTVLAVFGKGCLSSSFSCLFLYTSELYPTVIRQTGMGVSNLWTRVGSMVSPLVKITGEVQPFIPNIIYGITALLGGSAALFLPETLNQPLPETIEDLENWSLRAKKPKQEPEVEKASQRIPLQPHGPGLGSS
B1 showed a Km [1] of 149 µM, a Km [2] of 124 µM and a Km [3] of 234 µM.
